Assays:
PpD-KdpD = target: T1, PpD-KdpD (Pseudomonas putida, UniProt Q88J13); test: coupled assay with PpKGSADH, NADH at […] nm; type: biochemical; settings: read-out: I50
T1 construct: gene PP_2836; C-terminal His6 tag (kept), pET vector, E. coli BL21(DE3), HisTrap purified
T1 sequence (Q88J13 1-405): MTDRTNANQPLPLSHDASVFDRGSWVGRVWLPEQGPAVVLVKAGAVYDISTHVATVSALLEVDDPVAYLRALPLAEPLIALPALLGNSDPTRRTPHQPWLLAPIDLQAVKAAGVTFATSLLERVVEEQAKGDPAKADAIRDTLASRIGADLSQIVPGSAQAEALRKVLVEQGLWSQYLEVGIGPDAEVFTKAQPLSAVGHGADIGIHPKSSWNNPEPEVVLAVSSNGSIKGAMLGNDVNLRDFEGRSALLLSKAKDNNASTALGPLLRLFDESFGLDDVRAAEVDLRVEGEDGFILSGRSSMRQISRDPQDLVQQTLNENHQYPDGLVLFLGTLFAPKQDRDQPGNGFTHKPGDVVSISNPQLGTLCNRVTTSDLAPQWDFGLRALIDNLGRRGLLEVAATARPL

purified protein = substrate: O=C(O)C(=O)C[C@@H](O)CO; test: purified protein; type: biochemical, Variovorax paradoxus; settings: 2 mM NAD+ for coupling enzyme, 5 mM MgCl2, 50 mM HEPES pH 7.5, 25 °C

O=C(O)[C@H](O)[C@@H](O)[C@H](O)CO [D-xylonate]
IC50 (PpD-KdpD): 75 mM

B1: VpL-KdpD (Variovorax paradoxus EPS) (protein)
chain: MPKPMNHNLSNPRYRGIFPVVPTTFTEQGALDLESQKRCVDFMIDAGSDGLCILANFSEQFVLSDEEREVLTRTMLEHVKGRVPVIVTTTHYSTKVCAERSRRAQDMGAAMLMVMPPYHGATFRVPEPQIFEFYAGLSDAVSIPIMIQDAPASGTVLSAPFLARMAKEIEHVAYFKIETANAAAKLRELIRLGGDAIEGPWDGEEAITLMPDLDAGATGSMTGGGYPDGIRPIIEAHRAGDRDKAFALYQQWLPLINYENRQAGLLACKSLMKEGGVIACEAPRHPLPAMHPATRAGLIETAKRLDPLVLRWGK
notes: N-terminal His6 tag (kept), pET vector, E. coli BL21(DE3), HisTrap purified
Km (purified protein): 150 ± 10 µM | kcat (purified protein): 21.8 ± 0.2 s⁻¹ | kcat/Km (purified protein): 146000 ± 200 M⁻¹ s⁻¹

From paper PMC7374468, “Characterization of highly active 2-keto-3-deoxy-L-arabinonate and 2-keto-3-deoxy-D-xylonate dehydratases in terms of the biotransformation of hemicellulose sugars to chemicals” (Applied Microbiology and Biotechnology, 2020)
